B1: DYRK1B (parent)
chain: KKVLNHGYDDDNHDYIVRSGERWL

Variants of: B1
Experiment: protein stability index of a GFP-peptide fusion (GPS, HEK-293T) (PSI 1-6); higher = more stable
Settings: c terminus: a fixed tail appended
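Also: lentivirally expressed fusions sorted by FACS into six bins by GFP to DsRed ratio, PSI derived from sequencing read proportions per bin multiplied by bin number.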

First: KKVLNHGYDDDNHDYIRRSGERWL [V17R]
Second: KKVLNHGYDDDNHDYIFRSGERWL [V17F]
The protein stability index of the first is higher: 3.53 for the first, 2.74 for the second.

First: KKVLNHGYDDDNHDYIDRSGERWL [V17D]
Second: KKVLNHGYDDDNHDYIWRSGERWL [V17W]
The protein stability index of the first is higher: 3.56 for the first, 2.56 for the second.

Compared with KKVLNHGYDDDNHDYIARSGERWL [V17A], KKVLNHGYDDDNHDYIMRSGERWL [V17M] is lower in protein stability index: 3.11 for the first, 2.98 for the second.

Compared with KKVLNHGYDDDNHDYITRSGERWL [V17T], KKVLNHGYDDDNHDYILRSGERWL [V17L] is higher in protein stability index: 2.97 for the first, 3.07 for the second.

Compared with KKVLNHGYDDDNHDYIQRSGERWL [V17Q], KKVLNHGYDDDNHDYINRSGERWL [V17N] is higher in protein stability index: 3.57 for the first, 3.65 for the second.

Compared with KKVLNHGYDDDNHDYIIRSGERWL [V17I], KKVLNHGYDDDNHDYIERSGERWL [V17E] is higher in protein stability index: 2.55 for the first, 4.03 for the second.

First: KKVLNHGYDDDNHDYISRSGERWL [V17S]
Second: KKVLNHGYDDDNHDYIKRSGERWL [V17K]
The protein stability index of the first is lower: 3.36 for the first, 3.4 for the second.

First: KKVLNHGYDDDNHDYIPRSGERWL [V17P]
Second: KKVLNHGYDDDNHDYIGRSGERWL [V17G]
The protein stability index of the first is higher: 3.86 for the first, 3.36 for the second.

Compared with KKVLNHGYDDDNHDYIYRSGERWL [V17Y], KKVLNHGYDDDNHDYIHRSGERWL [V17H] is higher in protein stability index: 2.94 for the first, 3.46 for the second.

First: KKVLNHGYDDDNHDYICRSGERWL [V17C]
Second: KKVLNHGYDDDNHDYIVRSPERWL [G20P]
The protein stability index of the first is lower: 2.6 for the first, 3.2 for the second.

Going from KKVLNHGYDDDNHDYIVRSLERWL [G20L] to KKVLNHGYDDDNHDYIVRSCERWL [G20C], the protein stability index rises from 1.88 to 2.95.

Going from KKVLNHGYDDDNHDYIVRSVERWL [G20V] to KKVLNHGYDDDNHDYIVRSQERWL [G20Q], the protein stability index rises from 2.03 to 3.34.

Compared with KKVLNHGYDDDNHDYIVRSTERWL [G20T], KKVLNHGYDDDNHDYIVRSSERWL [G20S] is higher in protein stability index: 2.83 for the first, 3.01 for the second.

Going from KKVLNHGYDDDNHDYIVRSFERWL [G20F] to KKVLNHGYDDDNHDYIVRSMERWL [G20M], the protein stability index rises from 2.04 to 2.13.

First: KKVLNHGYDDDNHDYIVRSNERWL [G20N]
Second: KKVLNHGYDDDNHDYIVRSAERWL [G20A]
The protein stability index of the first is higher: 3.29 for the first, 2.73 for the second.

Going from KKVLNHGYDDDNHDYIVRSKERWL [G20K] to KKVLNHGYDDDNHDYIVRSEERWL [G20E], the protein stability index rises from 3.32 to 3.65.

First: KKVLNHGYDDDNHDYIVRSYERWL [G20Y]
Second: KKVLNHGYDDDNHDYIVRSHERWL [G20H]
The protein stability index of the first is lower: 2.23 for the first, 2.67 for the second.

Compared with KKVLNHGYDDDNHDYIVRSRERWL [G20R], KKVLNHGYDDDNHDYIVRSIERWL [G20I] is lower in protein stability index: 3.54 for the first, 2.73 for the second.

Compared with KKVLNHGYDDDNHDYIVRSWERWL [G20W], KKVLNHGYDDDNHDYIVRSDERWL [G20D] is higher in protein stability index: 2.31 for the first, 3.22 for the second.

Going from KKVLNHGYDDDNYDYIVRSGERWL [H13Y] to KKVLNHGYDDDNQDYIVRSGERWL [H13Q], the protein stability index rises from 2.64 to 3.68.

Going from KKVLNHGYDDDNPDYIVRSGERWL [H13P] to KKVLNHGYDDDNSDYIVRSGERWL [H13S], the protein stability index falls from 3.57 to 3.42.

First: KKVLNHGYDDDNADYIVRSGERWL [H13A]
Second: KKVLNHGYDDDNNDYIVRSGERWL [H13N]
The protein stability index of the first is lower: 3.06 for the first, 3.07 for the second.

First: KKVLNHGYDDDNLDYIVRSGERWL [H13L]
Second: KKVLNHGYDDDNEDYIVRSGERWL [H13E]
The protein stability index of the first is lower: 2.59 for the first, 4.24 for the second.

Going from KKVLNHGYDDDNRDYIVRSGERWL [H13R] to KKVLNHGYDDDNIDYIVRSGERWL [H13I], the protein stability index falls from 3.77 to 2.79.

Compared with KKVLNHGYDDDNWDYIVRSGERWL [H13W], KKVLNHGYDDDNGDYIVRSGERWL [H13G] is higher in protein stability index: 2.44 for the first, 3.27 for the second.

Compared with KKVLNHGYDDDNMDYIVRSGERWL [H13M], KKVLNHGYDDDNFDYIVRSGERWL [H13F] is lower in protein stability index: 2.58 for the first, 1.95 for the second.

First: KKVLNHGYDDDNVDYIVRSGERWL [H13V]
Second: KKVLNHGYDDDNDDYIVRSGERWL [H13D]
The protein stability index of the first is lower: 2.96 for the first, 3.73 for the second.

Going from KKVLNHGYDDDNCDYIVRSGERWL [H13C] to KKVLNHGYDDDNTDYIVRSGERWL [H13T], the protein stability index rises from 2.54 to 3.35.

Compared with KKVLNHGYDDDNKDYIVRSGERWL [H13K], KKVLNHGYDDDNHDYIVDSGERWL [R18D] is higher in protein stability index: 3.59 for the first, 3.78 for the second.

Compared with KKVLNHGYDDDNHDYIVSSGERWL [R18S], KKVLNHGYDDDNHDYIVGSGERWL [R18G] is higher in protein stability index: 3.1 for the first, 3.45 for the second.

Compared with KKVLNHGYDDDNHDYIVWSGERWL [R18W], KKVLNHGYDDDNHDYIVVSGERWL [R18V] is higher in protein stability index: 2.38 for the first, 2.67 for the second.

First: KKVLNHGYDDDNHDYIVLSGERWL [R18L]
Second: KKVLNHGYDDDNHDYIVISGERWL [R18I]
The protein stability index of the first is lower: 2.39 for the first, 2.62 for the second.

Going from KKVLNHGYDDDNHDYIVQSGERWL [R18Q] to KKVLNHGYDDDNHDYIVASGERWL [R18A], the protein stability index falls from 3.78 to 3.

First: KKVLNHGYDDDNHDYIVTSGERWL [R18T]
Second: KKVLNHGYDDDNHDYIVHSGERWL [R18H]
The protein stability index of the first is lower: 2.92 for the first, 3.4 for the second.

Going from KKVLNHGYDDDNHDYIVNSGERWL [R18N] to KKVLNHGYDDDNHDYIVCSGERWL [R18C], the protein stability index falls from 2.9 to 2.82.

First: KKVLNHGYDDDNHDYIVPSGERWL [R18P]
Second: KKVLNHGYDDDNHDYIVMSGERWL [R18M]
The protein stability index of the first is higher: 3.24 for the first, 2.39 for the second.

Compared with KKVLNHGYDDDNHDYIVESGERWL [R18E], KKVLNHGYDDDNHDYIVKSGERWL [R18K] is lower in protein stability index: 3.75 for the first, 3.74 for the second.

First: KKVLNHGYDDDNHDYIVYSGERWL [R18Y]
Second: KKVLNHGYDDDNHDYIVFSGERWL [R18F]
The protein stability index of the first is higher: 2.48 for the first, 2.39 for the second.

Compared with KKVLNHGYDDDNHDYCVRSGERWL [I16C], KKVLNHGYDDDNHDYPVRSGERWL [I16P] is higher in protein stability index: 3.48 for the first, 3.55 for the second.

Compared with KKVLNHGYDDDNHDYDVRSGERWL [I16D], KKVLNHGYDDDNHDYRVRSGERWL [I16R] is lower in protein stability index: 3.84 for the first, 3.49 for the second.

Compared with KKVLNHGYDDDNHDYYVRSGERWL [I16Y], KKVLNHGYDDDNHDYNVRSGERWL [I16N] is lower in protein stability index: 3.89 for the first, 3.24 for the second.

Going from KKVLNHGYDDDNHDYQVRSGERWL [I16Q] to KKVLNHGYDDDNHDYVVRSGERWL [I16V], the protein stability index rises from 3.58 to 3.86.

First: KKVLNHGYDDDNHDYGVRSGERWL [I16G]
Second: KKVLNHGYDDDNHDYEVRSGERWL [I16E]
The protein stability index of the first is lower: 3.71 for the first, 4.17 for the second.

Going from KKVLNHGYDDDNHDYKVRSGERWL [I16K] to KKVLNHGYDDDNHDYHVRSGERWL [I16H], the protein stability index falls from 3.49 to 3.23.

Going from KKVLNHGYDDDNHDYTVRSGERWL [I16T] to KKVLNHGYDDDNHDYLVRSGERWL [I16L], the protein stability index falls from 3.47 to 3.09.

Going from KKVLNHGYDDDNHDYAVRSGERWL [I16A] to KKVLNHGYDDDNHDYSVRSGERWL [I16S], the protein stability index falls from 3.73 to 3.68.

First: KKVLNHGYDDDNHDYFVRSGERWL [I16F]
Second: KKVLNHGYDDDNHDYWVRSGERWL [I16W]
The protein stability index of the first is higher: 3.09 for the first, 2.71 for the second.

Reference: the supplement of paper PMC10567573
